Molecular target: HPV16 L2 minor capsid protein (UniProt P03107)
Sequence (P03107 whole entry): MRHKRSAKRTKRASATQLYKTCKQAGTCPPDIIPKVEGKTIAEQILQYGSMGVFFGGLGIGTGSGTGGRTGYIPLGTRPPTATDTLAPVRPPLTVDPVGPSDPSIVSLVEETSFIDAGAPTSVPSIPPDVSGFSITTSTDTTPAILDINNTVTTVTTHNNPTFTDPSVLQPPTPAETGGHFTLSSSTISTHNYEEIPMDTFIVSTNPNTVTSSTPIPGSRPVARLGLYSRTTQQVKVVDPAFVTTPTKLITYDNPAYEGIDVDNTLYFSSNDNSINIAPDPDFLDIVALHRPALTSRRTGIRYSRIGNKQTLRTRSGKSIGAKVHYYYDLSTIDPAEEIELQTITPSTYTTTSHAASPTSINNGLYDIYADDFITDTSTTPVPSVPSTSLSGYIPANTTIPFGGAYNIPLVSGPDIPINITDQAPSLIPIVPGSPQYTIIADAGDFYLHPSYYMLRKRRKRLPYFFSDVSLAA

## recombinant His-furin
  cleavage of HPV16 L2 by furin, immunoblot with anti-HPV16 polyclonal antibody: furin cleaves the L2 protein in the absence of polyR and FI

Source: US20190351013
